{"source": "patent US20240116985A1", "about": "(published 2024)", "key": {"Bcat-Halo": {"biological_target": "T1, Bcat-Halo (UniProt P35222 1-781)", "T1 construct": "also called beta-catenin HaloTag fusion; not shown: HaloTag", "T1 sequence (looked up)": "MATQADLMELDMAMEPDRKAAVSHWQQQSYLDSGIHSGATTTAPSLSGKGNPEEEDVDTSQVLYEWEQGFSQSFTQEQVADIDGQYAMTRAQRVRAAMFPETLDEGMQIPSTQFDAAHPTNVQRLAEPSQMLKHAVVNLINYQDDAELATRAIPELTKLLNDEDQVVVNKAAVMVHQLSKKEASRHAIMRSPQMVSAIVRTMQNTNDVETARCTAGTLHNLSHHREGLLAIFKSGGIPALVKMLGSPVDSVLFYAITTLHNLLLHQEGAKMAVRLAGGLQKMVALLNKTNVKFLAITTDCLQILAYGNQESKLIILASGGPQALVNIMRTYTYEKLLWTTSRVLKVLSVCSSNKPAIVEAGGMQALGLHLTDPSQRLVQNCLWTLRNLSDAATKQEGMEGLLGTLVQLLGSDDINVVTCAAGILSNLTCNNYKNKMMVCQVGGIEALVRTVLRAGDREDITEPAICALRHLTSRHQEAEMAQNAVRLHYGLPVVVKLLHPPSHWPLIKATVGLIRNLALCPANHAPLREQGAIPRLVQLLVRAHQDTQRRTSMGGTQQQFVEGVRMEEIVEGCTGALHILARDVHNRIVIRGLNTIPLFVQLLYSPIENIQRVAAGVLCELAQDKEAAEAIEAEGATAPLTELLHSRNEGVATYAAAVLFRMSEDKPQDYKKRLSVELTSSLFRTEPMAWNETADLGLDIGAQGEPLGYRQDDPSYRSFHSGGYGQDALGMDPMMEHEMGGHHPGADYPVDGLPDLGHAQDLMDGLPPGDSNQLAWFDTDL", "experiment": "NanoBRET Abs IC50 in HEK293 cells; Bcat-Halo, competitor TCF4-Luc"}, "[1]": {"biological_target": "T2, full-length beta-Catenin (Uniprot ID P35222) (Homo sapiens (Human), UniProt P35222 1-781)", "T2 construct": "also called bCat; B-Catenin", "T2 sequence": "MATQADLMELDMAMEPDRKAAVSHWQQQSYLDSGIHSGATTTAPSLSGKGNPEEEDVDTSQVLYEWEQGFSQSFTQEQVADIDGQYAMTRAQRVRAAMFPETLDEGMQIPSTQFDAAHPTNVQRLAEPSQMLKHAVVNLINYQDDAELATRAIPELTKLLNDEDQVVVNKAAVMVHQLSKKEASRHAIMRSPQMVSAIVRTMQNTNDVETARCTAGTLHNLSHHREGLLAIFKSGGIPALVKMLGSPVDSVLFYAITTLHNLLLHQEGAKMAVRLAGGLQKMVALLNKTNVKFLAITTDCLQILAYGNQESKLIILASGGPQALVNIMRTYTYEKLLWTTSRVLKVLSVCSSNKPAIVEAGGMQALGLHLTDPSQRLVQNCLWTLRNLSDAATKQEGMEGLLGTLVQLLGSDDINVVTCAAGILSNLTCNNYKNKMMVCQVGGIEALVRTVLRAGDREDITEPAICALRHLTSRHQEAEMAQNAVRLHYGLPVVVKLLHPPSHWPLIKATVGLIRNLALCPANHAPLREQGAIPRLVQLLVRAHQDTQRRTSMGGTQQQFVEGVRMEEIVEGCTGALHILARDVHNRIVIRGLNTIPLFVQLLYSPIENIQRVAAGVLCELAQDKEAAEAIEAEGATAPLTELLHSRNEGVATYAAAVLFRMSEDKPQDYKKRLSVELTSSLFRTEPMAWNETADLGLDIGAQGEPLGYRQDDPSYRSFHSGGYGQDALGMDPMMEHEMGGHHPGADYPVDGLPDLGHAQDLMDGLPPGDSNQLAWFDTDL", "experiment": "fluorescence polarization competition; full-length beta-catenin, competitor 5FAM-TCF4(10-53) probe", "how_it_was_run": "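Fluorescence polarization was read in duplicate after the plate sat 60 minutes at 20° C. shielded from light. Values come from fitting to a 1:1 binding model with hill slope.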"}, "B-cat-Halo": {"biological_target": "T3, B-cat-Halo (UniProt P35222 1-781)", "T3 sequence (looked up)": "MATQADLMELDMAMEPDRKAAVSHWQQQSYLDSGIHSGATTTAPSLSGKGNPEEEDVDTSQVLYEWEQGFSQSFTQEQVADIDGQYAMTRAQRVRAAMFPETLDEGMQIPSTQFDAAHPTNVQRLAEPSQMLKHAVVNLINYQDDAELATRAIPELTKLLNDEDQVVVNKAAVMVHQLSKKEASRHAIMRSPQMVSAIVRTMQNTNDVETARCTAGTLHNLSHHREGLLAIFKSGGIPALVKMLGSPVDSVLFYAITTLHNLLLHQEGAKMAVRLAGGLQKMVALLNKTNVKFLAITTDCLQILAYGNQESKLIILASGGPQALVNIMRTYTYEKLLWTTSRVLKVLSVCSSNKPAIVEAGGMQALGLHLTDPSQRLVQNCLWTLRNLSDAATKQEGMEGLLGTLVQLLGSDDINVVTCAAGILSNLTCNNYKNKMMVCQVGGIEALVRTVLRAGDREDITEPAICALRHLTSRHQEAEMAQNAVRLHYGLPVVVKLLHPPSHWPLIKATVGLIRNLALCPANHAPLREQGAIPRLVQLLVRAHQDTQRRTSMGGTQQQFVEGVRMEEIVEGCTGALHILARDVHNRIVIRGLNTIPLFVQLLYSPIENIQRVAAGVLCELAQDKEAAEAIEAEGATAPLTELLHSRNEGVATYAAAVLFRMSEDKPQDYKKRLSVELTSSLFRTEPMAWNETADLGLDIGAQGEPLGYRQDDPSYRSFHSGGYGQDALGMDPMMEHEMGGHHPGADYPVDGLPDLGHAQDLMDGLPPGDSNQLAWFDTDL", "experiment": "cell-based or functional assay"}, "[2]": {"biological_target": "T4, full-length beta-Catenin (Uniprot ID P35222) (Homo sapiens (Human), UniProt P35222 2-781)", "T4 construct": "The assay protocols say only 'full-length'; No tag is stated, although the AlphaScreen kit is a Histidine (Nickel Chelate) kit; also called B-Catenin; bCat", "T4 sequence": "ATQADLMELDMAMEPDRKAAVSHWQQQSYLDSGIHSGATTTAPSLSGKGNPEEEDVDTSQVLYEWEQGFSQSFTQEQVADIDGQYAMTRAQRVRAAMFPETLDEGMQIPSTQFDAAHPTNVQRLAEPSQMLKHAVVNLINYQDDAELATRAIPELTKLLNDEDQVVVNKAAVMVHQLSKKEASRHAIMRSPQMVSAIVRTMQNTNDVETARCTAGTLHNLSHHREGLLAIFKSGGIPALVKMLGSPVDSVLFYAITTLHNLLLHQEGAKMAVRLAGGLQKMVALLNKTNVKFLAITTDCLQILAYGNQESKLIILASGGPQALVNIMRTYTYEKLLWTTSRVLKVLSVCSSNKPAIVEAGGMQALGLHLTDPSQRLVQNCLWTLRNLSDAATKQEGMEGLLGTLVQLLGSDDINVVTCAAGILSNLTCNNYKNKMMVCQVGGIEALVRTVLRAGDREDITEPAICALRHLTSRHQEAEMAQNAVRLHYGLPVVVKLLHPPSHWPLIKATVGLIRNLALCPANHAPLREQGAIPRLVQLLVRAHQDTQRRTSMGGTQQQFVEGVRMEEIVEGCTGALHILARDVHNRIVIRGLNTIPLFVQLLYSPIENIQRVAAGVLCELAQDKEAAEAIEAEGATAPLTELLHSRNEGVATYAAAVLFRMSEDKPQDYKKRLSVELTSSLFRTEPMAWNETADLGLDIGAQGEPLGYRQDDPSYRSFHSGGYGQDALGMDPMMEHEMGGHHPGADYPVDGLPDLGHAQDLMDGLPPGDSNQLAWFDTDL", "experiment": "AlphaScreen competition; peptide titrated against full-length beta-catenin + biotin-TCF4(10-53)", "method": "Equal volume of the titrated peptide was added to the plate and incubated for 15 minutes at 20° C. Then 4 uL of donor and 4 uL acceptor beads at 10 ug/mL were added to the plate, for a 16 uL reaction pool and protected from light for 60 minutes at 20° C. prior to read. Reads were performed on a CLARIOstar plate reader (BMG Labtech) in duplicate, and data were fitted to a 1:1 binding model with hill slope using an in-house script. All provided concentrations are final concentrations."}, "[3]": {"biological_target": "T4, full-length beta-Catenin (Uniprot ID …)", "experiment": "fluorescence polarization competition; peptide titrated against full-length beta-catenin + 5FAM-TCF4(10-53) probe", "method": "(§1) The plate was incubated protected from light for 60 minutes at 20° C. prior to read. Reads were performed on a CLARIOstar plate reader (BMG Labtech) in duplicate, and data were fitted to a 1:1 binding model with hill slope using an in-house script. All provided concentrations are final concentrations."}, "[4]": {"biological_target": "T5, full-length beta-Catenin (Uniprot ID P35222) (Homo sapiens (Human), UniProt P35222 2-781)", "T5 construct": "The fluorescence polarization protocol says only 'full-length'; also called bCat; B-Catenin", "T5 sequence": "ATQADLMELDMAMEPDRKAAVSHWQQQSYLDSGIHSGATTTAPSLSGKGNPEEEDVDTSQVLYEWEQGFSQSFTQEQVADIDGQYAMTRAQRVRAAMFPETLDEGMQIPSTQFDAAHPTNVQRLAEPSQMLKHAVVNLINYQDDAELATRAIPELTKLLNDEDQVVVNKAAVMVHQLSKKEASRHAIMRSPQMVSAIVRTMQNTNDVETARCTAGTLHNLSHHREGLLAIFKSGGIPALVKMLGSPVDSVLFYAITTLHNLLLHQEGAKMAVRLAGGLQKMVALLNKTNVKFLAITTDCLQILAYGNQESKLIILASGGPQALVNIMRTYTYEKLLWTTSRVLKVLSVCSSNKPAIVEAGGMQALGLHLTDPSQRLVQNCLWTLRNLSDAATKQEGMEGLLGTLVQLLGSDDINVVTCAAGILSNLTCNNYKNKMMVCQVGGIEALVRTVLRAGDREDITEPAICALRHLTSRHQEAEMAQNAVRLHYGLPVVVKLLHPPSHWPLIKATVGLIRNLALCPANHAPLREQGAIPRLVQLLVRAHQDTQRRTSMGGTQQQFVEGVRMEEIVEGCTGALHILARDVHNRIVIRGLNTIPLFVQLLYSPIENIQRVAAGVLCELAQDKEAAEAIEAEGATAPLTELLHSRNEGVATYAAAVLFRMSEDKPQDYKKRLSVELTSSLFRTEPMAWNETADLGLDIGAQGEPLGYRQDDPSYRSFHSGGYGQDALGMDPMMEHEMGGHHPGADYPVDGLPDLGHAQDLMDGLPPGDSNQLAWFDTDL", "experiment": "fluorescence polarization competition; full-length beta-catenin + 5FAM-TCF4(10-53) probe; peptide titrated", "method": "as §1"}}, "note": "Starred links: 1 amine or outer side, 2 acyl side, 3 side chain; linkers in the order of their positions; H or OH if unused. Positions of bridges follow the written chain, without caps; N, C: chain ends. Non-standard residues stand in square brackets, D forms with d. Primed or numbered codes have the meaning given here. *: point of attachment. B5(16) = 2-amino-2-(pent-4-en-1-yl)hept-6-enoic acid = 2,2-bis(4-pentenyl)glycine (stitching residue), C=CCCCC(CCCC=C)(N[*:1])C(=O)[*:2]; B5(5) = 2,2-bis(4-pentenyl)glycine, 2-amino-2-(pent-4-en-1-yl)hept-6-enoic acid (stitching residue), C=CCCCC(CCCC=C)(N[*:1])C(=O)[*:2]; Bta = N[C@@H](Cc1csc2ccccc12)C(=O)O; αAllylPro = C=CC[C@@]1(C(=O)O)CCCN1; S8 = C=CCCCCCC[C@](C)(N)C(=O)O; Ms = CS(=O)(=O)*", "data": [{"binder": "Ac-[αAllylPro]DI[B5(16)]DEQAFQ[S8]F[Bta]Q-NH2 (staple 1-4, 4-11, Stapled peptide)", "note": "[I-654]", "values": [{"measurement": "IC50", "setting": "Bcat-Halo", "result": 15, "unit": "µM"}]}, {"binder": "XDIXDEASFQXFXQ (not fully specified; Ac-PL3-Asp-Ile-B5-Asp-Glu-Ala-Ser-Phe-Gln-S8-Phe-BztA-Gln-NH2; N-terminal acetyl, C-terminal amide; PL3(1), B5(4), S8(11) stapled by olefin metathesis (1-4 and 4-11); BztA at 13, Stapled peptide)", "note": "[I-662]", "values": [{"measurement": "IC50", "setting": "[1]", "result": 0.026, "unit": "µM"}, {"measurement": "IC50", "setting": "Bcat-Halo", "result": 16.1, "unit": "µM"}]}, {"binder": "XDAXDDAAFVXFAQ (not fully specified; N-terminal Ac; C-terminal NH2; PL3 at 1, B5 at 4, S8 at 11 (stapled 1-4 and 4-11), Stapled peptide composition; Earlier-eluting isomer composition; also called Ac-PL3-Asp-Ala-B5-Asp-Asp-Ala-Ala-Phe-Val-S8-Phe-Ala-Gln-NH2)", "note": "[I-357]", "values": [{"measurement": "NanoBRET % inh @ 10 uM", "setting": "B-cat-Halo", "result": -5.3, "unit": "%"}, {"measurement": "EC50", "setting": "[2]", "result": 10, "unit": "µM"}, {"measurement": "EC50", "setting": "[3]", "result": 5, "unit": "µM"}]}, {"binder": "Ms-[αAllylPro]DI[B5(5)]DEAAFQ[S8]F[Bta]Q-NH2 (staple 1-4, 4-11, Stapled peptide composition; Later-eluting HPLC isomer peak (I-710 is the earlier one); also called MeSO2-PL3-Asp-Ile-B5-Asp-Glu-Ala-Ala-Phe-Gln-S8-Phe-BztA-Gln-NH2)", "note": "[I-711]", "values": [{"measurement": "EC50", "setting": "[4]", "result": 0.088, "unit": "µM"}]}]}
